In article doi:10.1101/2021.02.28.432901:

Target: T1, SWELL1 (LRRC8a, Leucine-Rich Repeat Containing Protein 8a), Q80WG5
T1 chain: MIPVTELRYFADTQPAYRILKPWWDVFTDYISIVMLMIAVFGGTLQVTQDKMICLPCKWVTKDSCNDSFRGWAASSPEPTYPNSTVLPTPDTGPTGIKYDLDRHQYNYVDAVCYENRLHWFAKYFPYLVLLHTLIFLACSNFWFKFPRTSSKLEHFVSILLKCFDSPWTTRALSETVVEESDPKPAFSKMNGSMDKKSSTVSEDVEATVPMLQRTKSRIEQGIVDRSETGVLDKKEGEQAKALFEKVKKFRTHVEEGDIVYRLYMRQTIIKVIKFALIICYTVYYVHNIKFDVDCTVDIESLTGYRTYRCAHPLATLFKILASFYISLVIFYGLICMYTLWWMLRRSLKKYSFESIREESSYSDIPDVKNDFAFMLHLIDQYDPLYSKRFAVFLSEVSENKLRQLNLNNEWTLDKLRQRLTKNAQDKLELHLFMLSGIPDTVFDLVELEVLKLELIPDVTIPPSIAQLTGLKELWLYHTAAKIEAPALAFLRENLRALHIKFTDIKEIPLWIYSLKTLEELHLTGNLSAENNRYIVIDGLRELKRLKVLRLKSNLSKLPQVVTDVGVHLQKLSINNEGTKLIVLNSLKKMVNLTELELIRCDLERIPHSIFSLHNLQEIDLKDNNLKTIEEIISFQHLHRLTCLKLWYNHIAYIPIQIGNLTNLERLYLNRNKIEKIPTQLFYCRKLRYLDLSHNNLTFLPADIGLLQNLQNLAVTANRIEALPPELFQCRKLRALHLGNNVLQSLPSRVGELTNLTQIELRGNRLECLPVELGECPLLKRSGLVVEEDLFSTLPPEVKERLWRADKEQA
Experiment: cryo-EM structure
Details: remark: other sources report otherwise

- stoichiometry N: 6
B1: SWELL1 (LRRC8a, Leucine-Rich Repeat Containing Protein 8a), Q80WG5 1-810 (natural protein)
chain: MIPVTELRYFADTQPAYRILKPWWDVFTDYISIVMLMIAVFGGTLQVTQDKMICLPCKWVTKDSCNDSFRGWAASSPEPTYPNSTVLPTPDTGPTGIKYDLDRHQYNYVDAVCYENRLHWFAKYFPYLVLLHTLIFLACSNFWFKFPRTSSKLEHFVSILLKCFDSPWTTRALSETVVEESDPKPAFSKMNGSMDKKSSTVSEDVEATVPMLQRTKSRIEQGIVDRSETGVLDKKEGEQAKALFEKVKKFRTHVEEGDIVYRLYMRQTIIKVIKFALIICYTVYYVHNIKFDVDCTVDIESLTGYRTYRCAHPLATLFKILASFYISLVIFYGLICMYTLWWMLRRSLKKYSFESIREESSYSDIPDVKNDFAFMLHLIDQYDPLYSKRFAVFLSEVSENKLRQLNLNNEWTLDKLRQRLTKNAQDKLELHLFMLSGIPDTVFDLVELEVLKLELIPDVTIPPSIAQLTGLKELWLYHTAAKIEAPALAFLRENLRALHIKFTDIKEIPLWIYSLKTLEELHLTGNLSAENNRYIVIDGLRELKRLKVLRLKSNLSKLPQVVTDVGVHLQKLSINNEGTKLIVLNSLKKMVNLTELELIRCDLERIPHSIFSLHNLQEIDLKDNNLKTIEEIISFQHLHRLTCLKLWYNHIAYIPIQIGNLTNLERLYLNRNKIEKIPTQLFYCRKLRYLDLSHNNLTFLPADIGLLQNLQNLAVTANRIEALPPELFQCRKLRALHLGNNVLQSLPSRVGELTNLTQIELRGNRLECLPVELGECPLLKRSGLVVEEDLFSTLPPEVKERLWRADKEQA
